How the values were obtained:
[1] = biological target: opioid growth factor receptor (OGFr) (human) (UniProt Q9NZT2); experiment: cell-based or functional assay
Cdk4 = biological target: T1, Cdk4 (human, UniProt P11802 2-303); experiment: Cdk4 immunoprecipitation from SCC-1 cell homogenates, Western blot with p16 antibodies
T1 construct: Endogenous protein immunoprecipitated from SCC-1 cell homogenates with a commercial polyclonal Cdk4 antibody; also called Cdk4 kinase
Excerpt: Cell cycle progression depends on both positive and negative regulators.

Sequence of opioid growth factor receptor (OGFr) (human) (Q9NZT2 whole entry): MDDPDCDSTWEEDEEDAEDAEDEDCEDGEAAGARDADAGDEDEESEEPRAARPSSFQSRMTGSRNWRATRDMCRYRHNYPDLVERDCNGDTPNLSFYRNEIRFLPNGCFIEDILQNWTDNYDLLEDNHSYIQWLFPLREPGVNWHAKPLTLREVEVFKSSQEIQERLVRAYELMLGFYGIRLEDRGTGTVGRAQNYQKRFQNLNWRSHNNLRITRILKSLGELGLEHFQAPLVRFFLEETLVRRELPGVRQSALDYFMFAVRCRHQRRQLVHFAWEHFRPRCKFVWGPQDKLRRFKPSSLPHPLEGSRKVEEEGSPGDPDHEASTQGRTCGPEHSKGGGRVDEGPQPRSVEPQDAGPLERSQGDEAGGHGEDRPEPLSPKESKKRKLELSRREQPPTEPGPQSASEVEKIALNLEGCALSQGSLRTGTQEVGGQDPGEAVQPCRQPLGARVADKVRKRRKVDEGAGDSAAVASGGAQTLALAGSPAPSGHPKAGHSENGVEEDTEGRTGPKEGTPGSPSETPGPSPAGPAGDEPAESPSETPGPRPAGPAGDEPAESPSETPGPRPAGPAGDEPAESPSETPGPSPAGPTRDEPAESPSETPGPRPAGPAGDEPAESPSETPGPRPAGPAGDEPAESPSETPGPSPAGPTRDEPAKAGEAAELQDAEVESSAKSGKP
T1 sequence (P11802 2-303 limits assumed): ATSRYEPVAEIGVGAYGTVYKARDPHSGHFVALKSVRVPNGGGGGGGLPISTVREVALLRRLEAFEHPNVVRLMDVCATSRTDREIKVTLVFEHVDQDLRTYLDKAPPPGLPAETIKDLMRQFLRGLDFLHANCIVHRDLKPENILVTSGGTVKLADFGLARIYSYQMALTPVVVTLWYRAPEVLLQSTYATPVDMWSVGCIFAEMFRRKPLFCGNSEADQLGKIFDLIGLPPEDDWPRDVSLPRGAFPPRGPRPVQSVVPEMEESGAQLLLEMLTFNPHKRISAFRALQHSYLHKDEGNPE

growth of control siRNA-treated SCC-1 cells (cell number at 96 h) [1]	growth of wt SCC-1 cells (cell number at 96 h) [1]	binding result (Cdk4)	Molecule
46%	29%	–	opioid growth factor (OGF), [Met5]-enkephalin (from UniProt P01210 100-104) (peptide)
–	–	binds	p16 (INK4a) (other, human, UniProt P42771 1-156, looked up, Endogenous protein co-immunoprecipitated with Cdk4 from SCC-1 cell homogenates and detected with a commercial p16 antibody) MEPAAGSSMEPSADWLATAAARGRVEEVRALLEAGALPNAPNSYGRRPIQVMMMGSARVAELLLLHGAEPNCADPATLTRPVHDAAREGFLDTLVVLHRAGARLDVRDAWGRLPVDLAEELGHRDVARYLRAAAGGTRGSNHARIDAAEGPSDIPD
